T1: mouse OX40 on transfected CHO cells (mouse, UniProt P47741 20-272)
T1 construct: also called mOX40
T1 sequence: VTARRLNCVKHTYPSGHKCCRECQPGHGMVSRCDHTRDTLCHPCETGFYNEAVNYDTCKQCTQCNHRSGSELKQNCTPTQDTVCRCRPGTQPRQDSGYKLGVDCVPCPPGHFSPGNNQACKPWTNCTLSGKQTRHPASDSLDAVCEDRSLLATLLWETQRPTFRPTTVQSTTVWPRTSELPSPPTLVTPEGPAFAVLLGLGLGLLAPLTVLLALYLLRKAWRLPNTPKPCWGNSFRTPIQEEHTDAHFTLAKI

T2: Human OX40 protein (hOX40-His) (human, UniProt P43489 29-214)
T2 construct: Soluble analyte in the SPR assay; also called His-tagged human OX40; not shown: His tag
T2 sequence: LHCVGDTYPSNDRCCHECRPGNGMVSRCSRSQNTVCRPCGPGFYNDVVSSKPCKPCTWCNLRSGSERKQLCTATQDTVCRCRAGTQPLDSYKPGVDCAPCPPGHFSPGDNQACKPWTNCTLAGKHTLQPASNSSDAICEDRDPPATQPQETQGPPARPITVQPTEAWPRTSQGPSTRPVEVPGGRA

B1: mouse anti-hOX40 antibody 07-9H3 (antibody, V domains shown)
VH: QVQLKQSGPGLVQPSQSLSITCTVSGFSLTSYGVLWVRQPPGKGLEWLGVIWSGGSTDYNAAFISRLSISKDNSKSQVFFKMNSLQADDTAIYYCAREEFGYWGQGTLVTVSA
VL: DIQMTQTTSSLSASLGDRVTISCRASQDINNYLNWYQQKPDGTVKLLIYYTSRLHSGVPSRFSGSGSGTDYSLTISNLEQEDIATYFCQQTNTLPWTFGGGTKLEIK
notes: Mouse IgG purified from ascites fluid
B2: 9H3-mHvKv-IgG1 (antibody, V domains shown)
VH: QVQLKQSGPGLVQPSQSLSITCTVSGFSLTSYGVLWVRQPPGKGLEWLGVIWSGGSTDYNAAFISRLSISKDNSKSQVFFKMNSLQADDTAIYYCAREEFGYWGQGTLVTVSA
VL: DIQMTQTTSSLSASLGDRVTISCRASQDINNYLNWYQQKPDGTVKLLIYYTSRLHSGVPSRFSGSGSGTDYSLTISNLEQEDIATYFCQQTNTLPWTFGGGTKLEIK
notes: Chimeric: mouse 9H3 variable domains with human IgG1 constant domains (CL, CH1, CH2, CH3); also called 9H3 chimeric antibody; chimeric anti-hOX40 antibody
B3: 9H3-H2K2-IgG1 (antibody, V domains shown)
VH: QVQLVESGGGVVQPGRSLRISCAVSGFSLTSYGVLWVRQAPGKGLEWVAVIWSGGSTDYNAAFISRLTISRDNSKSTVYFQMNSLRAEDTAVYYCAREEFGYWGQGTLVTVSS
VL: DIQMTQSPSSLSASVGDRVTITCRASQDINNYLNWYQQKPGGAVKLLIYYTSRLHSGVPSRFSGSGSGTDFTLTISSLQPEDIATYYCQQTNTLPWTFGGGTKLEIKR
notes: Humanized, with human IgG1 constant domains; also called 9H3 humanized antibody H2K2
B4: 9H3-H2K1-IgG1 (antibody, V domains shown)
VH: QVQLVESGGGVVQPGRSLRISCAVSGFSLTSYGVLWVRQAPGKGLEWVAVIWSGGSTDYNAAFISRLTISRDNSKSTVYFQMNSLRAEDTAVYYCAREEFGYWGQGTLVTVSS
VL: DIQMTQSPSSLSASVGDRVTITCRASQDINNYLNWYQQKPGGAVKLLIYYTSRLHTGVPSRFSGSGSGTDFTLTISSLQPEDIATYYCQQTNTLPWTFGGGTKLEVKR
notes: Humanized, with human IgG1 constant domains (CL, CH1, CH2, CH3); also called 9H3 humanized antibody H2K1
B5: 9H3-H2K3-IgG1 (antibody, V domains shown)
VH: QVQLVESGGGVVQPGRSLRISCAVSGFSLTSYGVLWVRQAPGKGLEWVAVIWSGGSTDYNAAFISRLTISRDNSKSTVYFQMNSLRAEDTAVYYCAREEFGYWGQGTLVTVSS
VL: DIQMTQSPSSLSASVGDRVTITCRASQDINNYLNWYQQKPGGAVKLLIYYTSRLHSGVPSRFSGSGSGTDYTLTISSLQPEDIATYFCQQTNTLPWTFGGGTKLEIKR
notes: Humanized, with human IgG1 constant domains; also called 9H3 humanized antibody H2K3
B6: 9H3-H3K1-IgG1 (antibody, V domains shown)
VH: QVQLVESGGGVVQPGRSLRISCAVSGFSLTSYGVLWVRQAPGKGLEWLGVIWSGGSTDYNAAFISRLTISRDNSKSTVYFQMNSLRAEDTAVYYCAREEFGYWGQGTLVTVSS
VL: DIQMTQSPSSLSASVGDRVTITCRASQDINNYLNWYQQKPGGAVKLLIYYTSRLHTGVPSRFSGSGSGTDFTLTISSLQPEDIATYYCQQTNTLPWTFGGGTKLEVKR
notes: Humanized, with human IgG1 constant domains; also called 9H3 humanized antibody H3K1
B7: 9H3-H3K2-IgG1 (antibody, V domains shown)
VH: QVQLVESGGGVVQPGRSLRISCAVSGFSLTSYGVLWVRQAPGKGLEWLGVIWSGGSTDYNAAFISRLTISRDNSKSTVYFQMNSLRAEDTAVYYCAREEFGYWGQGTLVTVSS
VL: DIQMTQSPSSLSASVGDRVTITCRASQDINNYLNWYQQKPGGAVKLLIYYTSRLHSGVPSRFSGSGSGTDFTLTISSLQPEDIATYYCQQTNTLPWTFGGGTKLEIKR
notes: Humanized, with human IgG1 constant domains; also called 9H3 humanized antibody H3K2
B8: 9H3-H3K3-IgG1 (antibody, V domains shown)
VH: QVQLVESGGGVVQPGRSLRISCAVSGFSLTSYGVLWVRQAPGKGLEWLGVIWSGGSTDYNAAFISRLTISRDNSKSTVYFQMNSLRAEDTAVYYCAREEFGYWGQGTLVTVSS
VL: DIQMTQSPSSLSASVGDRVTITCRASQDINNYLNWYQQKPGGAVKLLIYYTSRLHSGVPSRFSGSGSGTDYTLTISSLQPEDIATYFCQQTNTLPWTFGGGTKLEIKR
notes: Humanized, with human IgG1 constant domains; also called 9H3 humanized antibody H3K3
B9: 5C1-mHvKv-IgG1 (antibody, V domains shown)
VH: EVQLQQSGTVLARPGASVKMSCKASGYSFTSYWMHWVKQRPGQGLEWIGTIYPGNSDTSNNQKFKGKAKLTAVTSASTAYMELSSLTNEDSAVYYCTTFYYRYEDYYAMDYWGQGTSVTVSS
VL: DIVMTQSHKFMSTSVGDRVSITCKASQDVNTAVAWYQQKPGQSPKLLIYSASYRYTGVPDRFTGSGSGTDFTFTISSVQAEDLAVYYCQQHYSTPFTFGSGTKLEIK
notes: Chimeric: mouse 5C1 variable domains with human IgG1 constant domains; also called 5C1 chimeric antibody
B10: 5D10-mHvKv-IgG1 (antibody, V domains shown)
VH: QVQLKESGPGLVAPSQSLSITCTVSGFSLTSYGVHWIRQPPGKGLEWLGVIWAGGNTNYNSALMSRLSISKDNSKSQVFLKMNSLQTDDTAMYNCASYDGYYGWFAYWGQGTLVTVSV
VL: DIQMTQTTSSLSASLGDRVTISCRASQDISYYLNWYQQKPDGTVKLLIYYTSRLHSGVPSRFSGSGSGTDYSLTISNLEQEDIATYFCQQGHTLPWTFGGGTKLEIK
notes: Chimeric: mouse 5D10 variable domains with human IgG1 constant domains; also called 5D10 chimeric antibody
B11: 9A4-mHvKv-IgG1 (antibody, V domains shown)
VH: EVQLQQFGAELVKPGASVKISCKASGYTFTDYNMDWVKQSHGKSLEWIGDINPNYDSTSYNQKFKGKATLTVDKSSSTAYMELRSLTSEDTAVYYCARGGYGNYVDYFDYWGQGTTLTVSS
VL: NIVMTQSPKSMSMSVGERVTLSCKASENVVTYVSWYQQKPEQSPKLLIYGASNRYTGVPDRFTGSGSATDFTLTISSVQAEDLADYHCGQSYSYPYTFGGGTKLEIK
notes: Chimeric: mouse 9A4 variable domains with human IgG1 constant domains; also called 9A4 chimeric antibody
B12: 9A4 (mouse antibody) (antibody, V domains shown)
VH: EVQLQQFGAELVKPGASVKISCKASGYTFTDYNMDWVKQSHGKSLEWIGDINPNYDSTSYNQKFKGKATLTVDKSSSTAYMELRSLTSEDTAVYYCARGGYGNYVDYFDYWGQGTTLTVSS
VL: NIVMTQSPKSMSMSVGERVTLSCKASENVVTYVSWYQQKPEQSPKLLIYGASNRYTGVPDRFTGSGSATDFTLTISSVQAEDLADYHCGQSYSYPYTFGGGTKLEIK
notes: also called 07-9A4

target: T1, mouse OX40 on transfected CHO cells; experiment: flow cytometry, CHO-mOX40 cells; anti-mIgG Fc-FITC against SSC-H
Procedure: 25 ul CHO cells were added to each well. 25 ul purified anti-hOX40 antibodies (1 ug/ml) (9H3 or “07-9H3”) were added to each well and were incubated at 4° C. for 30 minutes.
After being washed with PBS (1200 rmp, 5 min) twice, 50 ul of anti-mouse IgG Fc antibody fluorescein isothiocyanate conjugate (anti-mIgG Fc-FITC) with 1:500 dilution was added into each well and was incubated at 4° C. for 30 minutes, followed by PBS wash (1200 rmp, 5 min). The signals for FITC were determined by flow cytometry.

Binder	binding result
B1	no binding

target: chimeric (mouse and human) OX40 on transfected CHO cells (chimeric (mouse and human)); experiment: flow cytometry, CHO-chiOX40 cells; antibody at 1 ug/ml; anti-mIgG Fc-FITC (x axis) against SSC-H; NC panel of the same cells 2.78%

Binder	% of cells in the anti-mouse-IgGFc-FITC positive gate
B1	33.9%

target: T2, Human OX40 protein (hOX40-His); experiment: SPR, Biacore T200, antibody captured on Protein A chip, hOX40-His as analyte, 1:1 Langmuir fit
Procedure: The antibodies were tested for hOX40 binding. The affinity of an antibody was determined by surface plasmon resonance (Biacore T200 biosensor, Biacore, INC, Piscataway N.J.) equipped with pre-immobilized Protein A sensor chips.
Anti-hOX40 antibody 9H3-mHvKv-IgG1 (1 μg/mL) were injected into Biacore T200 biosensor at 10 μL/min for 25 seconds to achieve to a desired protein density (about 112 response units (RU)). […] Dissociation was monitored for 300 seconds. The chip was regenerated after the last injection of each titration with Glycine (pH 2.0, 30 μL/min for 12 seconds).
The same method with necessary appropriate adjustments for parameters (e.g., concentrations of the antibodies) were performed for all other tested antibodies.

Binder	Kd	koff	kon
B2	2.31 nM	0.000594 s⁻¹	258000 M⁻¹ s⁻¹
B3	3.84 nM	0.00087 s⁻¹	227000 M⁻¹ s⁻¹
B4	3.35 nM	0.000748 s⁻¹	223000 M⁻¹ s⁻¹
B5	1.55 nM	0.000393 s⁻¹	254000 M⁻¹ s⁻¹
B6	2.49 nM	0.000606 s⁻¹	244000 M⁻¹ s⁻¹
B7	3.34 nM	0.000642 s⁻¹	192000 M⁻¹ s⁻¹
B8	1.92 nM	0.000451 s⁻¹	235000 M⁻¹ s⁻¹
B9	29.8 nM	0.00163 s⁻¹	54900 M⁻¹ s⁻¹
B10	46.5 nM	0.0147 s⁻¹	317000 M⁻¹ s⁻¹
B11	55.3 nM	0.00669 s⁻¹	121000 M⁻¹ s⁻¹
B12	21.6 nM	0.00192 s⁻¹	89100 M⁻¹ s⁻¹
